This assay addresses gsk3b_human GSK3B (UniProt P49841).

Chain of Tuberin (Rattus norvegicus (Rat)), P49816 S1389A (P49816 whole entry S1389A): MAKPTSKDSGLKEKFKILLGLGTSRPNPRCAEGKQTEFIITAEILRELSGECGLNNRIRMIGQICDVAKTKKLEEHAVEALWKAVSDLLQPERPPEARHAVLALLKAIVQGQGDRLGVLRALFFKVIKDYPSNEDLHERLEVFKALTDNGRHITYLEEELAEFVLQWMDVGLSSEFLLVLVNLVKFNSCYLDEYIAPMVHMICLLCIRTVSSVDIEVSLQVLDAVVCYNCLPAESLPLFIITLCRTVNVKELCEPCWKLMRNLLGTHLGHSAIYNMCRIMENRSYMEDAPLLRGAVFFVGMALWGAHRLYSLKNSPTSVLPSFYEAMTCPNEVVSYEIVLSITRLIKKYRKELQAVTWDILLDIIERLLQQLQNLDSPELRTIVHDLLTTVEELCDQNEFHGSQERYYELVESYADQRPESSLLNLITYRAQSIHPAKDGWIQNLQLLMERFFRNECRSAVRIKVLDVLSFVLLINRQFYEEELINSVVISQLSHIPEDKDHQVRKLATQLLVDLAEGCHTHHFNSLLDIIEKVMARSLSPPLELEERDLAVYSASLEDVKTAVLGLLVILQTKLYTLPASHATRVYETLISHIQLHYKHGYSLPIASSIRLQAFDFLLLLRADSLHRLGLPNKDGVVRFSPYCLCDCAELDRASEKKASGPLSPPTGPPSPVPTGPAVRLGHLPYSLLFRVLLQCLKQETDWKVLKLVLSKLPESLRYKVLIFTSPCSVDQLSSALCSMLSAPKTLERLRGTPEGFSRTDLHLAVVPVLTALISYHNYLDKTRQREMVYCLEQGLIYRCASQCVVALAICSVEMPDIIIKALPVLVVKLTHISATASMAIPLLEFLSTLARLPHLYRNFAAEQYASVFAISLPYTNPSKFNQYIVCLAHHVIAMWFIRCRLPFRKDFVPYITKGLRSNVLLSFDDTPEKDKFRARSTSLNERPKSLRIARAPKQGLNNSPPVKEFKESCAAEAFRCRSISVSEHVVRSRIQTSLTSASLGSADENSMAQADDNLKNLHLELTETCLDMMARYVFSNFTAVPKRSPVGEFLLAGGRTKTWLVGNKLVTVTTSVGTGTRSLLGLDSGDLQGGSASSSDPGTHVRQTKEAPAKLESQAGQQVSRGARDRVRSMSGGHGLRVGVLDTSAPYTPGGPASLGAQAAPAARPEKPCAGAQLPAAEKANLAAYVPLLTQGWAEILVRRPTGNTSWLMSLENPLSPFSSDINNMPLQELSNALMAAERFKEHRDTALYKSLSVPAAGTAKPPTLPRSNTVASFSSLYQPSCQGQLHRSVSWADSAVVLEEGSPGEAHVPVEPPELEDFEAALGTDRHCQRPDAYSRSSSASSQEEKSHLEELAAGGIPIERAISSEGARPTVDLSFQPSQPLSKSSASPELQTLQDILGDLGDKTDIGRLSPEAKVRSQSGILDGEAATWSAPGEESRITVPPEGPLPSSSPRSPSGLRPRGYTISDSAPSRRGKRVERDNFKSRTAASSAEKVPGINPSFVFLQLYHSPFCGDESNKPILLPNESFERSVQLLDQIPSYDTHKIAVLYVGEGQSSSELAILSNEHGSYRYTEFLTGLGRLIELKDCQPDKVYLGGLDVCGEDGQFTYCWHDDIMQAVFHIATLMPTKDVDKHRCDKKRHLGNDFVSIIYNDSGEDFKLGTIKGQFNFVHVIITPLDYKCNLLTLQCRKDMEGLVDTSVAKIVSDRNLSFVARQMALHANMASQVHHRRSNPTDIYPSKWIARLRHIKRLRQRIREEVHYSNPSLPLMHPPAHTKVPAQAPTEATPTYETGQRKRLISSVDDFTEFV
Chain of gsk3b_human GSK3B (P49841 whole entry, looked up): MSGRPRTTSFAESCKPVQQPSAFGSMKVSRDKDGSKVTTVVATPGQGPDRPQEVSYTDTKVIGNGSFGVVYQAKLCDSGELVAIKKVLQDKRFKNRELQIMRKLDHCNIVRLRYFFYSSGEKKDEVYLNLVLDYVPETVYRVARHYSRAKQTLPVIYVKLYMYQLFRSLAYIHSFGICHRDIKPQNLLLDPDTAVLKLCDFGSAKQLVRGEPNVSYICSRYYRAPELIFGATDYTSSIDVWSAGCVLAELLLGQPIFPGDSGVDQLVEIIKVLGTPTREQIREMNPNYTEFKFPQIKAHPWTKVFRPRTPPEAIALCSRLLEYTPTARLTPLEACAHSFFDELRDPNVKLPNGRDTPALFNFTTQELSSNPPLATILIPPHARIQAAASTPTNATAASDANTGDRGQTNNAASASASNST

In the case of “Tuberin (Rattus norvegicus (Rat)), P49816 S1389A”, the “effect of a mutation on the interaction” value is given as “disrupting interaction”.

For the origin of these results see IntAct's records for PubMed 16959574.
